From PMC13281853

Target: ancGR2-LBD (ligand-binding domain of the ancestral glucocorticoid receptor 2), Dex-bound
Assay: SPR

Substance: ancGR2-LBD (ligand-binding domain of the ancestral glucocorticoid receptor 2), Dex-bound (domain or fragment)
- Kd: 17.4 µM
